In this data set the target is T1, RORα S100D (human, UniProt P35398 1-523, S100D).
T1 sequence: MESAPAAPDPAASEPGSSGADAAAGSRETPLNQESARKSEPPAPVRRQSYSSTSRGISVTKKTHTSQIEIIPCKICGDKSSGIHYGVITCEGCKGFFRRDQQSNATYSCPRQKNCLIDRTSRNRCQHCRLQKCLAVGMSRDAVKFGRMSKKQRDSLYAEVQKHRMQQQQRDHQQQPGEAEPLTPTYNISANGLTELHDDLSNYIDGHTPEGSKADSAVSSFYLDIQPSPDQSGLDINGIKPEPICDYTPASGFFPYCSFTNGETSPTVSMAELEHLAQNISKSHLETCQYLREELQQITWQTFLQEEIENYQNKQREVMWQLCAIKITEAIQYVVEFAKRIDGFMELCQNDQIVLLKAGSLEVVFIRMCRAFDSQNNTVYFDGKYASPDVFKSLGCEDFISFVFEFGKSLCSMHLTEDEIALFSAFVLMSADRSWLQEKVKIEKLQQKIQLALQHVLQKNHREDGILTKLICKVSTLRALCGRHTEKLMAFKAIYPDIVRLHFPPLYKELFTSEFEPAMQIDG
The data set is described as follows: EMSA. Background: Mobility shift assays separate free from complexed probe on a gel.

B1: HRE probe (dsDNA)
DNA 1: GATCTCGACAGTGACCCTTTTAACCAGGTCAGTGAG
DNA 2: CTCACTGACCTGGTTAAAAGGGTCACTGTCGAGATC
Turning to B1, the binding result was “no binding”.

B2: RORE probe (dsDNA)
DNA 1: GATCTCGACTCGTATATCAAGGTCATGCTG
DNA 2: CAGCATGACCTTGATATACGAGTCGAGATC
As for B2, the binding result is “no binding”.
